The source of these data is PMC9436414.

For orientation: Km means the concentration of substrate that gives half-maximal velocity. Usually kcat stands for the maximal rate divided by the concentration of active sites. The kcat/Km is the turnover number divided by the Michaelis constant.

Test in all cases: purified protein
Substrate in data set [1]: N[C@@H](CO)C(=O)O
Conditions: 7 mM oxaloacetate as acceptor, 50 mM HEPES/KOH pH 7.5, 37 °C, pH 7.5.

Substrate in data set [2]: O=C(O)CC(=O)C(=O)O
Conditions: 100 mM serine as amine donor, 50 mM HEPES/KOH pH 7.5, 37 °C, pH 7.5.

Substrate in data set [3]: C[C@@H](N)C(=O)O
Conditions: 200 mM HEPES/KOH pH 7.5, 0.1 mM DCPIP, 1.5 mM PES, 10 mM KCN, 37 °C, pH 7.5.

Substrate in data set [4]: N[C@H](CO)C(=O)O
The conditions noted are these: DCPIP-coupled assay, 37 °C, exact D-serine reaction mix not stated.

B1: BhcA (Paracoccus denitrificans PD1222) (protein)
chain: MTSQNPIFIPGPTNIPEEMRKAVDMPTIDHRSPVFGRMLHPALEGVKKVLKTTQAQVFLFPSTGTGGWETAITNTLSPGDKVLAARNGMFSHRWIDMCQRHGLDVTFVETPWGEGVPADRFEEILTADKGHEIRVVLATHNETATGVKSDIAAVRRALDAAKHPALLFVDGVSSIGSMDFRMDEWGVDIAVTGSQKGFMLPPGLAIVGFSPKAMEAVETARLPRTFFDIRDMATGYARNGYPYTPPVGLINGLNASCERILAEGLENVFARHHRIASGVRAAVDAWGLKLCAVRPELYSDSVSAIRVPEGFDANLIVSHALETYDMAFGTGLGQVAGKVFRIGHLGSLTDAMALSGIATAEMVMADLGLPIQLGSGVAAAQEHYRQTTAAAQKKAA
With B1, in the data set “purified protein [1]”, the Michaelis-Menten constant (Km) stood at 7 mM and the kcat was 25.9 s⁻¹. In “purified protein [2]”, the Km came out at 0.23 ± 0.03 mM, the kcat turned out to be 31.2 s⁻¹ and the kcat/Km came to 140000 M⁻¹ s⁻¹.

B2: DadA (Escherichia coli K-12) (protein)
chain: MRVVILGSGVVGVASAWYLNQAGHEVTVIDREPGAALETSAANAGQISPGYAAPWAAPGVPLKAIKWMFQRHAPLAVRLDGTQFQLKWMWQMLRNCDTSHYMENKGRMVRLAEYSRDCLKALRAETNIQYEGRQGGTLQLFRTEQQYENATRDIAVLEDAGVPYQLLESSRLAEVEPALAEVAHKLTGGLQLPNDETGDCQLFTQNLARMAEQAGVKFRFNTPVDQLLCDGEQIYGVKCGDEVIKADAYVMAFGSYSTAMLKGIVDIPVYPLKGYSLTIPIAQEDGAPVSTILDETYKIAITRFDNRIRVGGMAEIVGFNTELLQPRRETLEMVVRDLYPRGGHVEQATFWTGLRPMTPDGTPVVGRTRFKNLWLNTGHGTLGWTMACGSGQLLSDLLSGRTPAIPYEDLSVARYSRGFTPSRPGHLHGAHS
In the case of B2, in the data set “purified protein [3]”, the Km is 1.26 ± 0.26 mM, the kcat was found to be 0.81 s⁻¹ and the kcat/Km amounted to 642 M⁻¹ s⁻¹. Moreover, in the data set “purified protein [4]”, the Km is 64.77 ± 9.28 mM, the kcat was determined as 0.37 s⁻¹ and the kcat/Km was found to be 5.71 M⁻¹ s⁻¹.
